T1: recombinant human C1r2s2 tetramer (human, UniProt P09871 16-688; P00736 18-705)
T1 construct: C1s and C1r co-expressed in HEK293/FreeStyle 293-F and purified from conditioned medium
T1 chain 1: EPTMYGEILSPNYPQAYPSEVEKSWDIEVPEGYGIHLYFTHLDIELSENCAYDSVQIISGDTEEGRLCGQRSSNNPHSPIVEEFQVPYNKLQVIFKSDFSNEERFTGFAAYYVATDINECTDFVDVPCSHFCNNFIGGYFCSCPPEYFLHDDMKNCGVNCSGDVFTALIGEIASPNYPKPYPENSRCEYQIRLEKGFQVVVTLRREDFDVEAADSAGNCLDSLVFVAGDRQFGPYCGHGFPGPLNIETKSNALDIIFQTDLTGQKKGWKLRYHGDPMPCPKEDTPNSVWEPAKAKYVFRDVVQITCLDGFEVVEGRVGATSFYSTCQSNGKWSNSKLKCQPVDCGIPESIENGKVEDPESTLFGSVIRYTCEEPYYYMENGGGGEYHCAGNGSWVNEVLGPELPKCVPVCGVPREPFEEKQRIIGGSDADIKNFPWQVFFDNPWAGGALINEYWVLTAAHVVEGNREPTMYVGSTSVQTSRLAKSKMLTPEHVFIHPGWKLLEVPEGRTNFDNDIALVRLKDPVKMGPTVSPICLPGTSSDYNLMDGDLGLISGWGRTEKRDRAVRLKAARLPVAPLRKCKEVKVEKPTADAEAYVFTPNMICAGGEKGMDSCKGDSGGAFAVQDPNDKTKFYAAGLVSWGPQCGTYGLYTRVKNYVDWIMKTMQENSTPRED
T1 chain 2: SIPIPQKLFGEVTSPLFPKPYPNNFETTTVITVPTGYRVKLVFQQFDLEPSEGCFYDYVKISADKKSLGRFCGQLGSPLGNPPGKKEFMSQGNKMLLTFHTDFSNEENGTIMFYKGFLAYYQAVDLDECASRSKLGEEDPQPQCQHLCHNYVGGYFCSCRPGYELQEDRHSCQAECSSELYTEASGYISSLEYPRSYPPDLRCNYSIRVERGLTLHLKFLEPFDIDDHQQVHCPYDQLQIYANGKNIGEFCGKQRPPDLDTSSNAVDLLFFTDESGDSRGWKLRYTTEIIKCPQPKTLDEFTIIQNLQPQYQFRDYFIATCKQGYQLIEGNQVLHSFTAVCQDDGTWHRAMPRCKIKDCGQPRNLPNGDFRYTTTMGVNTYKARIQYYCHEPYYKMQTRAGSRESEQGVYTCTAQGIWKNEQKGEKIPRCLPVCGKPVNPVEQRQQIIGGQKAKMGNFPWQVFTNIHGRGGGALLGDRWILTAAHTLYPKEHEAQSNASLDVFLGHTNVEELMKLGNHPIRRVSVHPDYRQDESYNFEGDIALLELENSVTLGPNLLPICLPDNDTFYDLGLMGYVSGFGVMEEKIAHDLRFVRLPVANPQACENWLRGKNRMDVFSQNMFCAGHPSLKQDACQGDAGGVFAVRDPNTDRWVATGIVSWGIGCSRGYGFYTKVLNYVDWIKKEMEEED

B1: AL0545 (antibody, human IgG1, kappa, V domains shown)
VH: QVQLVESGGGVVQPGRSLRLSCAASGFTFSAYAMNWIRQPPGKGLEWIGLIYGSGSTFYASWAKGRVTISVDTSKNQFSLKLSSVTAADTAVYYCARGRSVNYNSDFHLWGQGTLVTVSS
VL: DIQMTQSPSSLSASVGDRVTITCQASQSLHDKKNLAWYQQKPGQPPKLLIYGASTLESGVPSRFSGSGSGTDFTLTISSLQPEDFATYYCQGEFSCSSADFNTFGQGTKVEIKR
notes: COS0637temp with VL C95dF (Kabat), already in the VL entry
B2: AL0546 (antibody, human IgG1, kappa, V domains shown)
VH: QVQLVESGGGVVQPGRSLRLSCAASGFTFSAYAMNWIRQPPGKGLEWIGLIYGSGSTFYASWAKGRVTISVDTSKNQFSLKLSSVTAADTAVYYCARGRSVNYNSDFHLWGQGTLVTVSS
VL: DIQMTQSPSSLSASVGDRVTITCQASQSLHDKKNLAWYQQKPGQPPKLLIYGASTLESGVPSRFSGSGSGTDFTLTISSLQPEDFATYYCQGEFSCSSADGNTFGQGTKVEIKR
notes: COS0637temp with VL C95dG (Kabat), already in the VL entry
B3: AL0547 (antibody, human IgG1, kappa, V domains shown)
VH: QVQLVESGGGVVQPGRSLRLSCAASGFTFSAYAMNWIRQPPGKGLEWIGLIYGSGSTFYASWAKGRVTISVDTSKNQFSLKLSSVTAADTAVYYCARGRSVNYNSDFHLWGQGTLVTVSS
VL: DIQMTQSPSSLSASVGDRVTITCQASQSLHDKKNLAWYQQKPGQPPKLLIYGASTLESGVPSRFSGSGSGTDFTLTISSLQPEDFATYYCQGEFSCSSADHNTFGQGTKVEIKR
notes: COS0637temp with VL C95dH (Kabat), already in the VL entry
B4: AL0548 (antibody, human IgG1, kappa, V domains shown)
VH: QVQLVESGGGVVQPGRSLRLSCAASGFTFSAYAMNWIRQPPGKGLEWIGLIYGSGSTFYASWAKGRVTISVDTSKNQFSLKLSSVTAADTAVYYCARGRSVNYNSDFHLWGQGTLVTVSS
VL: DIQMTQSPSSLSASVGDRVTITCQASQSLHDKKNLAWYQQKPGQPPKLLIYGASTLESGVPSRFSGSGSGTDFTLTISSLQPEDFATYYCQGEFSCSSADINTFGQGTKVEIKR
notes: COS0637temp with VL C95dI (Kabat), already in the VL entry
B5: AL0549 (antibody, human IgG1, kappa, V domains shown)
VH: QVQLVESGGGVVQPGRSLRLSCAASGFTFSAYAMNWIRQPPGKGLEWIGLIYGSGSTFYASWAKGRVTISVDTSKNQFSLKLSSVTAADTAVYYCARGRSVNYNSDFHLWGQGTLVTVSS
VL: DIQMTQSPSSLSASVGDRVTITCQASQSLHDKKNLAWYQQKPGQPPKLLIYGASTLESGVPSRFSGSGSGTDFTLTISSLQPEDFATYYCQGEFSCSSADKNTFGQGTKVEIKR
notes: COS0637temp with VL C95dK (Kabat), already in the VL entry
B6: AL0550 (antibody, human IgG1, kappa, V domains shown)
VH: QVQLVESGGGVVQPGRSLRLSCAASGFTFSAYAMNWIRQPPGKGLEWIGLIYGSGSTFYASWAKGRVTISVDTSKNQFSLKLSSVTAADTAVYYCARGRSVNYNSDFHLWGQGTLVTVSS
VL: DIQMTQSPSSLSASVGDRVTITCQASQSLHDKKNLAWYQQKPGQPPKLLIYGASTLESGVPSRFSGSGSGTDFTLTISSLQPEDFATYYCQGEFSCSSADLNTFGQGTKVEIKR
notes: COS0637temp with VL C95dL (Kabat), already in the VL entry
B7: AL0551 (antibody, human IgG1, kappa, V domains shown)
VH: QVQLVESGGGVVQPGRSLRLSCAASGFTFSAYAMNWIRQPPGKGLEWIGLIYGSGSTFYASWAKGRVTISVDTSKNQFSLKLSSVTAADTAVYYCARGRSVNYNSDFHLWGQGTLVTVSS
VL: DIQMTQSPSSLSASVGDRVTITCQASQSLHDKKNLAWYQQKPGQPPKLLIYGASTLESGVPSRFSGSGSGTDFTLTISSLQPEDFATYYCQGEFSCSSADMNTFGQGTKVEIKR
notes: COS0637temp with VL C95dM (Kabat), already in the VL entry
B8: AL0552 (antibody, human IgG1, kappa, V domains shown)
VH: QVQLVESGGGVVQPGRSLRLSCAASGFTFSAYAMNWIRQPPGKGLEWIGLIYGSGSTFYASWAKGRVTISVDTSKNQFSLKLSSVTAADTAVYYCARGRSVNYNSDFHLWGQGTLVTVSS
VL: DIQMTQSPSSLSASVGDRVTITCQASQSLHDKKNLAWYQQKPGQPPKLLIYGASTLESGVPSRFSGSGSGTDFTLTISSLQPEDFATYYCQGEFSCSSADNNTFGQGTKVEIKR
notes: COS0637temp with VL C95dN (Kabat), already in the VL entry
B9: AL0553 (antibody, human IgG1, kappa, V domains shown)
VH: QVQLVESGGGVVQPGRSLRLSCAASGFTFSAYAMNWIRQPPGKGLEWIGLIYGSGSTFYASWAKGRVTISVDTSKNQFSLKLSSVTAADTAVYYCARGRSVNYNSDFHLWGQGTLVTVSS
VL: DIQMTQSPSSLSASVGDRVTITCQASQSLHDKKNLAWYQQKPGQPPKLLIYGASTLESGVPSRFSGSGSGTDFTLTISSLQPEDFATYYCQGEFSCSSADPNTFGQGTKVEIKR
notes: COS0637temp with VL C95dP (Kabat), already in the VL entry
B10: AL0554 (antibody, human IgG1, kappa, V domains shown)
VH: QVQLVESGGGVVQPGRSLRLSCAASGFTFSAYAMNWIRQPPGKGLEWIGLIYGSGSTFYASWAKGRVTISVDTSKNQFSLKLSSVTAADTAVYYCARGRSVNYNSDFHLWGQGTLVTVSS
VL: DIQMTQSPSSLSASVGDRVTITCQASQSLHDKKNLAWYQQKPGQPPKLLIYGASTLESGVPSRFSGSGSGTDFTLTISSLQPEDFATYYCQGEFSCSSADQNTFGQGTKVEIKR
notes: COS0637temp with VL C95dQ (Kabat), already in the VL entry
B11: AL0555 (antibody, human IgG1, kappa, V domains shown)
VH: QVQLVESGGGVVQPGRSLRLSCAASGFTFSAYAMNWIRQPPGKGLEWIGLIYGSGSTFYASWAKGRVTISVDTSKNQFSLKLSSVTAADTAVYYCARGRSVNYNSDFHLWGQGTLVTVSS
VL: DIQMTQSPSSLSASVGDRVTITCQASQSLHDKKNLAWYQQKPGQPPKLLIYGASTLESGVPSRFSGSGSGTDFTLTISSLQPEDFATYYCQGEFSCSSADRNTFGQGTKVEIKR
notes: COS0637temp with VL C95dR (Kabat), already in the VL entry
B12: AL0556 (antibody, human IgG1, kappa, V domains shown)
VH: QVQLVESGGGVVQPGRSLRLSCAASGFTFSAYAMNWIRQPPGKGLEWIGLIYGSGSTFYASWAKGRVTISVDTSKNQFSLKLSSVTAADTAVYYCARGRSVNYNSDFHLWGQGTLVTVSS
VL: DIQMTQSPSSLSASVGDRVTITCQASQSLHDKKNLAWYQQKPGQPPKLLIYGASTLESGVPSRFSGSGSGTDFTLTISSLQPEDFATYYCQGEFSCSSADSNTFGQGTKVEIKR
notes: COS0637temp with VL C95dS (Kabat), already in the VL entry
B13: AL0557 (antibody, human IgG1, kappa, V domains shown)
VH: QVQLVESGGGVVQPGRSLRLSCAASGFTFSAYAMNWIRQPPGKGLEWIGLIYGSGSTFYASWAKGRVTISVDTSKNQFSLKLSSVTAADTAVYYCARGRSVNYNSDFHLWGQGTLVTVSS
VL: DIQMTQSPSSLSASVGDRVTITCQASQSLHDKKNLAWYQQKPGQPPKLLIYGASTLESGVPSRFSGSGSGTDFTLTISSLQPEDFATYYCQGEFSCSSADTNTFGQGTKVEIKR
notes: COS0637temp with VL C95dT (Kabat), already in the VL entry
B14: AL0558 (antibody, human IgG1, kappa, V domains shown)
VH: QVQLVESGGGVVQPGRSLRLSCAASGFTFSAYAMNWIRQPPGKGLEWIGLIYGSGSTFYASWAKGRVTISVDTSKNQFSLKLSSVTAADTAVYYCARGRSVNYNSDFHLWGQGTLVTVSS
VL: DIQMTQSPSSLSASVGDRVTITCQASQSLHDKKNLAWYQQKPGQPPKLLIYGASTLESGVPSRFSGSGSGTDFTLTISSLQPEDFATYYCQGEFSCSSADVNTFGQGTKVEIKR
notes: COS0637temp with VL C95dV (Kabat), already in the VL entry

Target: T1, recombinant human C1r2s2 tetramer
Test: SPR (BIACORE), antibody captured by ProL, human C1r2s2 injected at 100 nM, pH 7.4, 37 C
Experimental: Analysis of interaction between antibody variants and the human C1r2s2 prepared as mentioned above was carried out at pH7.4, at 37 degrees C. using BIACORE® T200 instrument (GE Healthcare) or BIACORE® 4000 (GE Healthcare). ProL (BioVision) was immobilized onto a CM4 sensorchip using amine coupling kit (GE Healthcare) according to the recommended settings by GE Healthcare. Antibodies and analytes were diluted into the respective running buffers, ACES pH7.4 (20 mM ACES (N-(2-Acetamido)-2-aminoethanesulfonic acid), 150 mM NaCl, 1.2 mM CaCl2, 1 mg/ml bovine serum albumin (BSA), 1 mg/ml CMD (CM-Dextran sodium salt), 0.05% Tween® 20 (polysorbate 20), 0.005 w/v % NaN3). Each antibody was captured onto the sensor surface by ProL. Antibody capture levels were aimed at 200 resonance units (RU). Then, recombinant human C1r2s2 was injected at concentrations of 25 and 100 nM followed by dissociation at pH7.4. The surface was regenerated using 10 mM Glycine-HCl, pH1.5.

binding result	Binder
no binding (tested: 100 nM)	B1
no binding (tested: 100 nM)	B2
no binding (tested: 100 nM)	B3
no binding (tested: 100 nM)	B4
no binding (tested: 100 nM)	B5
no binding (tested: 100 nM)	B6
no binding (tested: 100 nM)	B7
no binding (tested: 100 nM)	B8
no binding (tested: 100 nM)	B9
no binding (tested: 100 nM)	B10
no binding (tested: 100 nM)	B11
no binding (tested: 100 nM)	B12
no binding (tested: 100 nM)	B13
no binding (tested: 100 nM)	B14

Reference: US20240092889A1 (Chugai, published 2024)
